Measured values taken from the RNAGym collection of RNA variant scans (doi:10.7554/elife.80360).

B1: Twister Ribozyme (parent)
chain: AACACUGCCAAUGCCGGUCCCAAGCCCGGAUAAAAGUGGAGGGGGCGG

Variants of: B1
Assay: self-cleavage, relative activity (ratio to wild type); higher = more cleavage; co-transcriptional

In order of falling self-cleavage:
1. A11U A22C  1.17
2. A10U A35C  1.16
3. U12A A32C  1.15
4. U12A A33U  1.14
5. U12A U31C  1.13
6. U12A A32G  1.12
7. A11U G48C  1.12
8. A11U G48U  1.12
9. A11G U31G  1.1
10. A11U G38C  1.08
11. A10U A33U  1.07
12. U12A G28U  1.06
13. A10U G38A  1.04
14. U12A G28C  1.02
15. U12A A30G  1.01
16. A11U U37A  1.01
17. U12A C14A  0.997
18. A11C G47U  0.977
19. U12A U31G  0.961
20. A11C A30U  0.959
21. A11C G44A  0.955
22. A11U U37G  0.953
23. A11U G48A  0.951
24. A11U U12A  0.95
25. A10U C20U  0.948
26. U12A C27U  0.945
27. A11C G45A  0.938
28. A10U G38C  0.933
29. A11G A32C  0.925
30. U12A U37A  0.918
31. A11U U31A  0.918
32. A10U C46A  0.913
33. A11G A22C  0.904
34. U12A C15A  0.901
35. A11U C27U  0.894
36. A11C A33G  0.893
37. A11U U31G  0.893
38. A10U G16A  0.89
39. A11C G44C  0.889
40. A11G A32G  0.882
41. U12C G28U  0.88
42. A11C U31C  0.876
43. A11G A30C  0.861
44. A10U C46G  0.857
45. A11U U12C  0.849
46. A11G A33G  0.84
47. A11G A33C  0.836
48. A11C G47A  0.836
49. A11C A32U  0.831
50. A10U A33G  0.825
51. A10U C14A  0.824
52. A11G G38A  0.824
53. A11G G47A  0.812
54. A10U A35G  0.808
55. A11U G16A  0.804
56. U12C G47A  0.785
57. A11G G44C  0.784
58. U12C G38U  0.781
59. A11G G29A  0.772
60. A11C A32C  0.769
61. A11G G29U  0.762
62. A11U G41A  0.747
63. U12A C27A  0.744
64. A11G U31C  0.736
65. U12C C25U  0.736
66. A10U C25U  0.731
67. U12A U37C  0.727
68. A11C A33C  0.724
69. A10U G36C  0.711
70. A10U G45C  0.707
71. U12A G36C  0.693
72. U12A G16C  0.688
73. A11G G38C  0.683
74. U12C G36A  0.679
75. U12A U31A  0.679
76. A11C G29C  0.668
77. A11G A22U  0.66
78. A11U C27A  0.66
79. A11C G47C  0.648
80. A11G G16A  0.627
81. A10U G41A  0.626
82. A11G G38U  0.613
83. A10U G41U  0.61
84. A10U C26A  0.607
85. A11U U37C  0.583
86. A11C G45C  0.581
87. A11C A22U  0.58
88. U12C G41A  0.577
89. A11C C15U  0.545
90. A11U G16C  0.532
91. A10U G39A  0.531
92. A11G U37C  0.529
93. A11U G17A  0.497
94. A11G U37G  0.494
95. A10U G13U  0.489
96. A11G G39A  0.477
97. A11G A23G  0.447
98. A11G C25G  0.437
99. A10U C26U  0.437
100. A11G A23C  0.422
101. A11C G42C  0.419
102. A11U A22G  0.399
103. U12C A34C  0.382
104. A11U G41C  0.374
105. A10U C19G  0.367
106. A11C C27U  0.352
107. A11G U31A  0.348
108. U12A C19A  0.342
109. U12C A22G  0.307
110. A10U G17U  0.302
111. U12C G17U  0.291
112. A11U G39U  0.279
113. U12C G41C  0.264
114. A10U C26G  0.264
115. A11U G17U  0.264
116. U12A G43C  0.255
117. A11C G43U  0.252
118. A11C A23G  0.249
119. A10U C14G  0.244
120. A10U G41C  0.239
121. A11G G43A  0.234
122. A10U G39U  0.215
123. A11U C14G  0.203
124. A11C C26A  0.183
125. U12A C20A  0.181
126. U12C C26G  0.179
127. U12C A40C  0.177
128. A11C C27A  0.176
129. A10U C21A  0.175
130. U12A C15G  0.17
131. A11G G43C  0.169
132. A10U C20A  0.168
133. U12A C21U  0.164
134. A11U A40C  0.161
135. U12A C20G  0.16
136. A11C G43C  0.159
137. A11C A23U  0.149
138. A11U G39C  0.149
139. U12C A40U  0.144
140. A11G G24U  0.143
141. A11U A40U  0.142
142. A11C G17U  0.14
143. A11C G17A  0.134
144. A10U C20G  0.131
145. A11C C20A  0.129
146. A10U C21G  0.126
147. U12A C21G  0.122
148. U12C C25A  0.122
149. A11G C21U  0.12
150. A11G G39C  0.119
151. A11U G17C  0.111
152. A11U G24A  0.108
153. A11G C21A  0.107
154. U12C A40G  0.107
155. A11U G24U  0.105
156. A11U C27G  0.104
157. A10U C21U  0.0991
158. U12C G17C  0.0944
159. U12A C14G  0.0875
160. A11C C27G  0.0803
161. A11C C26G  0.08
162. A10U C25A  0.0757
163. A11U U18G  0.0666
164. A11G C21G  0.0655
165. A11G C27G  0.0637
166. A11C C15G  0.0591
167. U12C U18G  0.0285
